Laboratory results taken from patent publication US20210403601A1 (FAPON BIOTECH, published 2021).
Where a chain is given by its changes, count along the chain named.

B1: Mutation 1-39 (antibody, V domains shown)
VH: QVQLQQPGAELVKPGASVRLSCQTSVNTFTTYYIYWVKQRPGEGLEWIGGINPTSGGPVFNEKFKSKATLTVDTSSSTAYMQLSSLTSVDSAVYYCTRSVLRRGYYFDYWGQGTALTVSS
VL: DIQMTQTTSSLSASLGDRVTISCRASQDINNYLNWYQQKPDGTIKLLIYYTSRLQSGVPSRFSGSGSGTDYSLTIANLEQEDIATYFCQQDDTVPLTFGAGTKVELKR
notes: Mutation 1 background; CDRs built
B2: Mutation 1-40 (antibody, V domains shown)
VH: B1 VH with N27D, T30S, I51L, L101V
VL: B1 VL with N30Q, L33I, Q55H, L96I
notes: as for B1
B3: Mutation 1-46 (antibody, V domains shown)
VH: B1 VH with N27D, T30S, I51L, V100I, L101V
VL: B1 VL with N30Q, L33I, Q55N, V58I, V94I, L96I
notes: as for B1
B4: Mutation 1-50 (antibody, V domains shown)
VH: B1 VH with T30S, I51V, L101I
VL: B1 VL with N30Q, V58L, L96V
notes: as for B1
B5: Mutation 1-52 (antibody, V domains shown)
VH: B1 VH with N27E, I51L, V100L, L101V
VL: B1 VL with N30Q, L33I, Q55H, V58I, V94L, L96I
notes: as for B1
B6: Mutation 1-60 (antibody, V domains shown)
VH: B1 VH with I51V, V100L
VL: B1 VL with N30Q, L33I, Q55H, V94L, L96V
notes: as for B1
B7: Mutation 1-24 (antibody, V domains shown)
VH: B1 VH with N27E, T30S, I51V, V100L
VL: B1 VL with N30Q, L33V, V58L, V94L, L96V
notes: as for B1
B8: Mutation 1-25 (antibody, V domains shown)
VH: B1 VH with N27E, V100L, L101V
VL: B1 VL with L33V, Q55H, V58L, V94L, L96I
notes: as for B1
B9: Mutation 1-26 (antibody, V domains shown)
VH: B1 VH with T30S, I51L, V100L, L101I
VL: B1 VL with N30Q, Q55N, V58L, V94L
notes: as for B1
B10: Mutation 1-29 (antibody, V domains shown)
VH: QVQLQQPGAELVKPGASVRLSCQTSVETFTTYYIYWVKQRPGEGLEWIGGLNPTSNPVFNEKFKSKATLTVDTSSSTAYMQLSSLTSVDSAVYYCTRSIIRRGYYFDYWGQGTALTVSS
VL: B1 VL with L33I, Q55N, V58I, V94I, L96V
notes: as for B1
B11: Mutation 1-33 (antibody, V domains shown)
VH: B1 VH with N27E, T30S, V100L
VL: B1 VL with V58L, V94L
notes: as for B1
B12: Mutation 1-35 (antibody, V domains shown)
VH: B10 VH with E27D, L51V, I99L
VL: B1 VL with L33I, Q55N, V58L, V94L, L96V
notes: as for B1
B13: Mutation 1-37 (antibody, V domains shown)
VH: B10 VH with I100V
VL: B1 VL with L33V, Q55H, V58I, V94I, L96I
notes: as for B1
B14: Mutation 1-38 (antibody, V domains shown)
VH: B1 VH with T30S, I51V, V100I, L101I
VL: B1 VL with N30Q, Q55N, V58I, V94I
notes: as for B1
B15: Mutation 1-41 (antibody, V domains shown)
VH: B10 VH with E27D, L51V, I99V
VL: B1 VL with L33I, Q55N, L96V
notes: as for B1
B16: Mutation 1-43 (antibody, V domains shown)
VH: B10 VH with I99L, I100V
VL: B1 VL with L33V, Q55H, V58L, V94L, L96I
notes: as for B1
B17: Mutation 1-44 (antibody, V domains shown)
VH: B1 VH with T30S, I51V, V100L, L101I
VL: B1 VL with N30Q, Q55N, V58L, V94L, L96V
notes: as for B1
B18: Mutation 1-45 (antibody, V domains shown)
VH: B1 VH with V100I
VL: B1 VL with Q55N, V94I
notes: as for B1
B19: Mutation 1-49 (antibody, V domains shown)
VH: B10 VH with I99V, I100V
VL: B1 VL with L33V, V58I, L96I
notes: as for B1
B20: Mutation 1-51 (antibody, V domains shown)
VH: B1 VH with V100L
VL: B1 VL with Q55H, V94L
notes: as for B1
B21: Mutation 1-53 (antibody, V domains shown)
VH: B10 VH with E27N, T30S, L51I, I99L
VL: B1 VL with L33I, Q55H, V58L, V94L, L96V
notes: as for B1
B22: Mutation 1-55 (antibody, V domains shown)
VH: B1 VH with N27D, T30S, I51V, V100I, L101V
VL: B1 VL with L33V, Q55N, V58I, V94I, L96I
notes: as for B1
B23: Mutation 1-56 (antibody, V domains shown)
VH: B1 VH with N27D, V100I, L101I
VL: B1 VL with N30Q, Q55N, V58L, V94I
notes: as for B1
B24: Mutation 1-58 (antibody, V domains shown)
VH: B10 VH with L51I, I99V, I100V
VL: B1 VL with N30Q, L33I, V58I, L96I
notes: as for B1
B25: Mutation 1-59 (antibody, V domains shown)
VH: B10 VH with E27N, T30S, I99V
VL: B1 VL with L33I, V58L
notes: as for B1
B26: Mutation 1-3 (antibody, V domains shown)
VH: B1 VH with N27E, I51V
VL: B1 VL with Q55H, V58I, L96V
notes: as for B1
B27: Mutation 1-7 (antibody, V domains shown)
VH: B10 VH with E27D, L51I, I99L, I100V
VL: B1 VL with L33V, Q55N, V94L, L96I
notes: as for B1
B28: Mutation 1-8 (antibody, V domains shown)
VH: B10 VH with T30S, I99L
VL: B1 VL with N30Q, Q55N, V58L, V94L
notes: as for B1
B29: Mutation 1-9 (antibody, V domains shown)
VH: B1 VH with N27E, I51V, V100I
VL: B1 VL with V58I, V94I, L96V
notes: as for B1
B30: Mutation 1-11 (antibody, V domains shown)
VH: B1 VH with I51L, V100I, L101I
VL: B1 VL with L33I, V58L, V94I
notes: as for B1
B31: Mutation 1-13 (antibody, V domains shown)
VH: B10 VH with E27D, L51I, I99V, I100V
VL: B1 VL with L33V, Q55H, L96I
notes: as for B1

biological target: T1, Taq DNA polymerase (Thermus aquaticus, UniProt P19821 1-832); assay: AMC sensor, antibody immobilised
T1 construct: also called Taq enzyme; Taq DNA enzyme
T1 sequence (P19821 whole entry): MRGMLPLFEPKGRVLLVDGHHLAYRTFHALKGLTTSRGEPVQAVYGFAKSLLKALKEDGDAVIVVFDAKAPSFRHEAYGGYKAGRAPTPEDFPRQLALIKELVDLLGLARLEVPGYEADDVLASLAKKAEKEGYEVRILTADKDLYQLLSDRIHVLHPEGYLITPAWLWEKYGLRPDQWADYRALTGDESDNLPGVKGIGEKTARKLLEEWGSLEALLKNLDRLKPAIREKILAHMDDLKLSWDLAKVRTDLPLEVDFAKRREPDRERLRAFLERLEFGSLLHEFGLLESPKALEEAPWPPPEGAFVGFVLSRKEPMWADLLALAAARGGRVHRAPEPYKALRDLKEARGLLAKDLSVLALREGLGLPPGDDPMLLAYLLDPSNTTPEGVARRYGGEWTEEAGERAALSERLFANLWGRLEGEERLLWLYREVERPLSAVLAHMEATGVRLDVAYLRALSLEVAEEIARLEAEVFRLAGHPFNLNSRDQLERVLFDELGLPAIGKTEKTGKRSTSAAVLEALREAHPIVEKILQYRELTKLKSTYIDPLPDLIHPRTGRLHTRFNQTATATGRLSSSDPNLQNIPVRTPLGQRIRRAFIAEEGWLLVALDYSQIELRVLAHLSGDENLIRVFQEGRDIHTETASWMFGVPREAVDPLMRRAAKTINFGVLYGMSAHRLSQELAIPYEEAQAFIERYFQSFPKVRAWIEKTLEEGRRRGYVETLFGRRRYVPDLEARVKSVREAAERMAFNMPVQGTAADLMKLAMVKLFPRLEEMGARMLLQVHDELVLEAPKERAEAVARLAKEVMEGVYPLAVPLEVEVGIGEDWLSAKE

Point of comparison: B27, Kd 0.599 nM. Against it:
- B1 — within 1.5-fold, 0.457 nM
- B2 — within 1.5-fold, 0.615 nM
- B3 — within 1.5-fold, 0.655 nM
- B4 — within 1.5-fold, 0.593 nM
- B5 — within 1.5-fold, 0.698 nM
- B6 — 19-fold lower, 0.0314 nM
- B7 — 3-fold lower, 0.199 nM
- B8 — within 1.5-fold, 0.678 nM
- B9 — within 1.5-fold, 0.852 nM
- B10 — 19-fold lower, 0.0314 nM
- B11 — 1.5-fold higher, 0.926 nM
- B12 — within 1.5-fold, 0.706 nM
- B13 — 1.6-fold lower, 0.382 nM
- B14 — 5.7-fold lower, 0.106 nM
- B15 — 2-fold lower, 0.297 nM
- B16 — 1.6-fold higher, 0.971 nM
- B17 — 45-fold lower, 0.0133 nM
- B18 — 10-fold lower, 0.0582 nM
- B19 — 3-fold lower, 0.198 nM
- B20 — 1.6-fold lower, 0.384 nM
- B21 — 1.6-fold lower, 0.384 nM
- B22 — 3.5-fold lower, 0.173 nM
- B23 — 1.5-fold higher, 0.914 nM
- B24 — 3.4-fold lower, 0.178 nM
- B25 — 12-fold lower, 0.0507 nM
- B26 — 1.6-fold lower, 0.367 nM
- B28 — 17-fold lower, 0.0343 nM
- B29 — 1.5-fold higher, 0.926 nM
- B30 — within 1.5-fold, 0.613 nM
- B31 — within 1.5-fold, 0.407 nM

Point of comparison: B21, koff 3.8e-05 s⁻¹. Against it:
- B1 — 1.7-fold lower, 2.2e-05 s⁻¹
- B2 — within 1.5-fold, 4.7e-05 s⁻¹
- B3 — within 1.5-fold, 2.87e-05 s⁻¹
- B4 — within 1.5-fold, 3.02e-05 s⁻¹
- B5 — 1.6-fold lower, 2.37e-05 s⁻¹
- B6 — 14-fold lower, 2.66e-06 s⁻¹
- B7 — 3.4-fold lower, 1.12e-05 s⁻¹
- B8 — within 1.5-fold, 4.57e-05 s⁻¹
- B9 — within 1.5-fold, 2.89e-05 s⁻¹
- B10 — 34-fold lower, 1.13e-06 s⁻¹
- B11 — within 1.5-fold, 3.94e-05 s⁻¹
- B12 — within 1.5-fold, 3.7e-05 s⁻¹
- B13 — within 1.5-fold, 2.68e-05 s⁻¹
- B14 — 11-fold lower, 3.32e-06 s⁻¹
- B15 — 3.9-fold lower, 9.82e-06 s⁻¹
- B16 — 1.8-fold higher, 6.92e-05 s⁻¹
- B17 — 7.8-fold lower, 4.9e-06 s⁻¹
- B18 — 12-fold lower, 3.07e-06 s⁻¹
- B19 — 2.2-fold lower, 1.71e-05 s⁻¹
- B20 — within 1.5-fold, 3.77e-05 s⁻¹
- B22 — 3.4-fold lower, 1.12e-05 s⁻¹
- B23 — within 1.5-fold, 3.79e-05 s⁻¹
- B24 — 2.8-fold lower, 1.34e-05 s⁻¹
- B25 — 12-fold lower, 3.06e-06 s⁻¹
- B26 — 2.5-fold lower, 1.54e-05 s⁻¹
- B27 — 1.6-fold lower, 2.45e-05 s⁻¹
- B28 — 23-fold lower, 1.64e-06 s⁻¹
- B29 — 1.9-fold higher, 7.28e-05 s⁻¹
- B30 — within 1.5-fold, 3.06e-05 s⁻¹
- B31 — 1.5-fold lower, 2.52e-05 s⁻¹

Point of comparison: B22, kon 64400 M⁻¹ s⁻¹. Against it:
- B1 — within 1.5-fold, 48100 M⁻¹ s⁻¹
- B2 — within 1.5-fold, 76400 M⁻¹ s⁻¹
- B3 — within 1.5-fold, 43800 M⁻¹ s⁻¹
- B4 — within 1.5-fold, 50800 M⁻¹ s⁻¹
- B5 — 1.9-fold lower, 34000 M⁻¹ s⁻¹
- B6 — within 1.5-fold, 84600 M⁻¹ s⁻¹
- B7 — within 1.5-fold, 56400 M⁻¹ s⁻¹
- B8 — within 1.5-fold, 67300 M⁻¹ s⁻¹
- B9 — 1.9-fold lower, 34000 M⁻¹ s⁻¹
- B10 — 1.8-fold lower, 36100 M⁻¹ s⁻¹
- B11 — 1.5-fold lower, 42600 M⁻¹ s⁻¹
- B12 — within 1.5-fold, 52400 M⁻¹ s⁻¹
- B13 — within 1.5-fold, 70200 M⁻¹ s⁻¹
- B14 — 2.1-fold lower, 31400 M⁻¹ s⁻¹
- B15 — 1.9-fold lower, 33100 M⁻¹ s⁻¹
- B16 — within 1.5-fold, 71200 M⁻¹ s⁻¹
- B17 — 5.7-fold higher, 369000 M⁻¹ s⁻¹
- B18 — within 1.5-fold, 52600 M⁻¹ s⁻¹
- B19 — within 1.5-fold, 86100 M⁻¹ s⁻¹
- B20 — 1.5-fold higher, 98300 M⁻¹ s⁻¹
- B21 — 1.5-fold higher, 99000 M⁻¹ s⁻¹
- B23 — 1.6-fold lower, 41500 M⁻¹ s⁻¹
- B24 — within 1.5-fold, 75000 M⁻¹ s⁻¹
- B25 — within 1.5-fold, 60400 M⁻¹ s⁻¹
- B26 — 1.5-fold lower, 42000 M⁻¹ s⁻¹
- B27 — 1.6-fold lower, 41000 M⁻¹ s⁻¹
- B28 — within 1.5-fold, 47600 M⁻¹ s⁻¹
- B29 — within 1.5-fold, 78600 M⁻¹ s⁻¹
- B30 — within 1.5-fold, 50000 M⁻¹ s⁻¹
- B31 — within 1.5-fold, 61700 M⁻¹ s⁻¹
